Results on seven molecules are retold here after patent publication US20200207859A1 (priority 2017, published 2020).

Experiment [1] has as its system ARD (MM). In words: Cell killing assay (cell proliferation, Cell Titer-Glo). It is filed as cell-based, human. The note with it: 72 hrs. How it is done:
(§1) Cytotoxicity effects of the free drug linkers and conjugates were measured with a cell proliferation assay. A total of 12500 cells in a volume of 25 μl were seeded in a 384-well flat bottom white polystyrene plate on the day of assay. Free drug-linkers and conjugates were formulated at 2× starting concentration (1000 nM for free drug linkers and 100 nM for ADCs) in RPMI medium and filtered through MultiScreen HTS 96-Well Filter Plates (Millipore). Filter sterilized samples were serial diluted (1:3) under sterile conditions and added into treatment wells. Plates were cultured at 37° C. in a CO2 incubator for 72 hrs. For cell viability measurement, 30 μl of Cell Titer-Glo® reagent (Promega Corp.) was added into each well, and plates processed as per product instructions. Relative luminescence was measured on an ENVISION® plate reader (Perkin-Elmer; Waltham, Mass.). Relative luminescence readings were converted to % viability using untreated cells as controls. Data was fitted with non-linear regression analysis, using log(inhibitor) vs. response, variable slope, 4 parameter fit equation using GraphPad Prism. Data was expressed as % relative cell viability vs. dose of free drug-linker or conjugate in nM.
(ATP-based viability assays read luminescence as a measure of living cells.)

In experiment [2] the test system is ARP-1 (MM). The description is as above. It is filed as cell-based, human. The note with it: 72 hrs. How it is done: as §1
For experiment [3], the system named is SU-DHL-6 (NHL). The experiment is described as above. Format: cell-based, human. The following applies: 72 hrs. How it is done: as §1
Experiment [4] deals with K562 (CML). Described as above. Format: cell-based. Also on record: key to Cell Killing Activity Span: NK = no killing; NB = no binding. The following applies: 72 hrs. How it is done: as §1
Experiment [5] has as its system OPM-2 (MM). The experiment is described as above. Also on record: key to Cell Killing Activity Span: NK = no killing; NB = no binding. Format: cell-based. The following applies: 72 hrs. How it is done: as §1
Experiment [6] has as its system RPMI-8226 (MM). The description is as above. Format: cell-based. Also on record: key to Cell Killing Activity Span: NK = no killing; NB = no binding. The following applies: 72 hrs. How it is done:
as §1

The subject of experiment [7] is BDCM (AML). The experiment is described as above. It is filed as cell-based. The note with it: 72 hrs. How it is done:
as §1

Experiment [8] relates to JVM-13 (CLL). Described as above. Format: cell-based. The following applies: 72 hrs. How it is done:
as §1

Experiment [9] relates to RPMI-6666 (HL). The description is as above. It is filed as cell-based. The following applies: 72 hrs. How it is done: as §1
In experiment [10] the test system is SUP-B15 (ALL). The description is as above. Format: cell-based. The following applies: 72 hrs. How it is done:
as §1

For experiment [11], the target named is CD74 (human), P04233. Put plainly: cell-based or functional assay.
Sequence of CD74 (human), P04233 (P04233 whole entry): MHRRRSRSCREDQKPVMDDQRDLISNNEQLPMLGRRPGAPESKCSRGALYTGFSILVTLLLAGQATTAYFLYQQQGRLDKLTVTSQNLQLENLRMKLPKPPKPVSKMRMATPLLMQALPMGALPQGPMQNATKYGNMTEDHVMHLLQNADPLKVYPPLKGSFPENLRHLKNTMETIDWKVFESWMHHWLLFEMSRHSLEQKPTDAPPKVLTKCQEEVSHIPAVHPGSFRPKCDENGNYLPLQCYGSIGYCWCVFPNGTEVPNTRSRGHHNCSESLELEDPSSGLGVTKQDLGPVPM

As to `COc1cc2cc(c1Cl)N(C)C(=O)C[C@H](OC(=O)[C@H](C)N(C)C(=O)CCCC(=O)N(C)CCOCCOCCOCCOCCC(=O)NCCC(=O)N1Cc3ccccc3C#Cc3ccccc31)[C@]1(C)O[C@H]1[C@H](C)[C@@H]1C[C@@](O)(NC(=O)O1)[C@H](OC)/C=C/C=C(/C)C2` [Free Linker-Drug, DBCO-PEG4-maytansine, reference compound], the “Cell Killing Activity Span” value is given as 40% in experiment [1]; 77% in experiment [2]; 98% in experiment [3]; “NK” in experiment [4]; “NK” in experiment [5]; “NK” in experiment [6]. The “Cell Killing Activity Span” value in [7] was determined as 76%; in [8] it was 65%; in experiment [9] it was 85%; in experiment [10], 65%.

B1: Conjugate A (anti-CD74 IgG-DBCO-PEG4-maytansine conjugate) (antibody, V domains shown)
VH: QVQLVESGGGVVQPGRSLRLSCAASGFNFSDYGMHWVRQAPGKGLEWVAVIWYDGSISYYADSVKGRFTISRDNSKNTLYLQMNSLRAEDTAVYYCARGGTVEHGAVYGTDVWGQGTTVTVSS
VL: DIQMTQSPSSVSASVGDRVTITCRASQGIGSWLAWYQQKPGKAPKLLIYAADRLQSGVPSRFSGSGSGTDFTLTISSLQPEDFATYYCQQYHTYPLTFGGGTKVEIK
modifications: here or on the partner: para-azidomethyl-L-phenylalanine (pAMF, residue 30) at heavy chain EU position 404 (constant region, outside SEQ ID NO 236), linked to DBCO-PEG4-maytansine
For the molecule B1, in experiment [11], the cell killing EC50, HH T lymphoma cells, 120 h CellTiter-Glo stood at 0.22 nM; the cell killing EC50, HuT-78 T lymphoma cells, 120 h CellTiter-Glo turned out to be 0.59 nM; the cell killing EC50, My-La T lymphoma cells, 120 h CellTiter-Glo amounted to 0.54 nM; the cell killing IC50, ARD (MM) cells worked out at 8.6 nM. For the same molecule, in experiment [11], the cell killing IC50, ARD (MM) cells, 72 h CellTiter-Glo came to 8.6 nM; the cell killing IC50, ARP-1 (MM) cells turned out to be 9 nM; the cell killing IC50, ARP-1 (MM) cells, 72 h CellTiter-Glo amounted to 9 nM; the cell killing IC50, BDCM (AML) cells stood at 4.6 nM. In experiment [11], this molecule showed a cell killing IC50, BDCM (AML) cells, 72 h CellTiter-Glo of 4.6 nM; a cell killing IC50, JVM-13 (CLL) cells of 1.5 nM; a cell killing IC50, JVM-13 (CLL) cells, 72 h CellTiter-Glo of 1.5 nM; a cell killing IC50, RPMI-6666 (HL) cells of 1 nM. Moreover, in experiment [11], the cell killing IC50, RPMI-6666 (HL) cells, 72 h CellTiter-Glo turned out to be 1 nM; the cell killing IC50, SU-DHL-6 (NHL) cells worked out at 0.6 nM; the cell killing IC50, SU-DHL-6 (NHL) cells, 72 h CellTiter-Glo is 0.6 nM; the cell killing IC50, SUP-B15 (ALL) cells is 3 nM. In experiment [11], this molecule returned a cell killing IC50, SUP-B15 (ALL) cells, 72 h CellTiter-Glo of 3 nM; a cell killing Span, ARD (MM) cells of 40%; a cell killing Span, ARD (MM) cells, 72 h CellTiter-Glo of 38%; a cell killing Span, ARP-1 (MM) cells of 77%. In experiment [11], this molecule registered a cell killing Span, ARP-1 (MM) cells, 72 h CellTiter-Glo of 74%; a cell killing Span, BDCM (AML) cells of 76%; a cell killing Span, BDCM (AML) cells, 72 h CellTiter-Glo of 74%; a cell killing Span, HH T lymphoma cells, 120 h CellTiter-Glo of 77%. Also, in experiment [11], the cell killing Span, HuT-78 T lymphoma cells, 120 h CellTiter-Glo is 72%; the cell killing Span, JVM-13 (CLL) cells amounted to 65%; the cell killing Span, JVM-13 (CLL) cells, 72 h CellTiter-Glo worked out at 58%; the cell killing Span, My-La T lymphoma cells, 120 h CellTiter-Glo was 73%. In [11], this molecule yielded a cell killing Span, RPMI-6666 (HL) cells of 85%; a cell killing Span, RPMI-6666 (HL) cells, 72 h CellTiter-Glo of 84%; a cell killing Span, SU-DHL-6 (NHL) cells of 98%; a cell killing Span, SU-DHL-6 (NHL) cells, 72 h CellTiter-Glo of 98%. Also, in [11], the cell killing Span, SUP-B15 (ALL) cells turned out to be 65% and the cell killing Span, SUP-B15 (ALL) cells, 72 h CellTiter-Glo was 64%.

B2: Conjugate E: anti-CD74 IgG containing residue 30 conjugated to a PEG4-MMAF precursor (conjugate)
VH: B1 VH
VL: B1 VL
As for B2, the “Cell Killing Activity Span” value in experiment [1] is given as 20%; in experiment [2], 71%; in experiment [3], 98%; in [4], “NK”; in [5], “NK”; in experiment [6] it was “NK”. For the same molecule, the entries for the “Cell Killing Activity Span” value in experiment [7], in experiment [8] and in experiment [10] were 78%, 47% and 58%, respectively. Also, the IC50 in [1] is 18 nM; in experiment [2], 6 nM; in [3] it was 0.5 nM; in experiment [4] it was above 50 nM; in [5] it was above 50 nM; in [6] it was above 50 nM. Further, the IC50 in experiment [7] stood at 3.3 nM; in experiment [8], 7.8 nM; in experiment [10] it was 2.5 nM.

B3: Conjugate B (anti-CD74 IgG-PEG4-maytansine conjugate) (antibody, V domains shown)
VH: B1 VH
VL: B1 VL
modifications: here or on the partner: modified amino acid residue 30 (pAMF) according to Example 2, position not stated for this conjugate, linked to a PEG4-maytansine linker-payload
In [11], B3 had a cell killing IC50, ARD (MM) cells of 31 nM; a cell killing IC50, ARP-1 (MM) cells of 16 nM; a cell killing IC50, BDCM (AML) cells of 15 nM; a cell killing IC50, JVM-13 (CLL) cells of 2 nM. In experiment [11], this molecule yielded a cell killing IC50, RPMI-6666 (HL) cells of 1.3 nM; a cell killing IC50, RPMI-8226 (MM) cells of 51 nM; a cell killing IC50, SU-DHL-6 (NHL) cells of 1.3 nM; a cell killing IC50, SUP-B15 (ALL) cells of 5.7 nM. Besides, in [11], the cell killing Span, ARD (MM) cells stood at 53%; the cell killing Span, ARP-1 (MM) cells worked out at 82%; the cell killing Span, BDCM (AML) cells is 95%; the cell killing Span, JVM-13 (CLL) cells amounted to 69%. For the same molecule, in experiment [11], the cell killing Span, RPMI-6666 (HL) cells stood at 89%; the cell killing Span, RPMI-8226 (MM) cells is 41%; the cell killing Span, SU-DHL-6 (NHL) cells came out at 98%; the cell killing Span, SUP-B15 (ALL) cells turned out to be 72%.

B4: Conjugate C (anti-CD74 IgG-val-cit-PAB-hemiasterlin conjugate) (antibody, V domains shown)
VH: B1 VH
VL: B1 VL
modifications: here or on the partner: modified amino acid residue 30 (pAMF) according to Example 2, position not stated for this conjugate, linked to val-cit-PAB-hemiasterlin
In experiment [11], B4 had a cell killing IC50, JVM-13 (CLL) cells of 0.9 nM; a cell killing IC50, RPMI-6666 (HL) cells of 0.9 nM; a cell killing IC50, SU-DHL-6 (NHL) cells of 0.3 nM; a cell killing Span, ARD (MM) cells of 74%. In [11], this molecule gave a cell killing Span, ARP-1 (MM) cells of 87%; a cell killing Span, BDCM (AML) cells of 89%; a cell killing Span, JVM-13 (CLL) cells of 54%; a cell killing Span, RPMI-6666 (HL) cells of 84%. Also, in [11], the cell killing Span, RPMI-8226 (MM) cells came to 43%; the cell killing Span, SU-DHL-6 (NHL) cells was 97%; the cell killing Span, SUP-B15 (ALL) cells was determined as 68%.

B5: Conjugate F (anti-CD74 IgG-PEG4-MMAE conjugate) (antibody, V domains shown)
VH: B1 VH
VL: B1 VL
modifications: here or on the partner: modified amino acid residue 30 (pAMF) according to Example 2, position not stated for this conjugate, linked to PEG4-MMAE
Regarding B5, in [11], the cell killing IC50, ARD (MM) cells stood at 16 nM; the cell killing IC50, ARP-1 (MM) cells worked out at 4.2 nM; the cell killing IC50, BDCM (AML) cells is 1.4 nM; the cell killing IC50, JVM-13 (CLL) cells was determined as 5 nM. In [11], this molecule gave a cell killing IC50, RPMI-6666 (HL) cells of 0.7 nM; a cell killing IC50, RPMI-8226 (MM) cells of 20 nM; a cell killing IC50, SU-DHL-6 (NHL) cells of 0.3 nM; a cell killing IC50, SUP-B15 (ALL) cells of 3.7 nM. Besides, in experiment [11], the cell killing Span, ARD (MM) cells stood at 73%; the cell killing Span, ARP-1 (MM) cells stood at 93%; the cell killing Span, BDCM (AML) cells was determined as 94%; the cell killing Span, JVM-13 (CLL) cells worked out at 59%. Further, in experiment [11], the cell killing Span, RPMI-6666 (HL) cells was 82%; the cell killing Span, RPMI-8226 (MM) cells is 31%; the cell killing Span, SU-DHL-6 (NHL) cells is 97%; the cell killing Span, SUP-B15 (ALL) cells was found to be 65%.

B6: Conjugate E (anti-CD74 IgG-PEG4-MMAF conjugate) (antibody, V domains shown)
VH: B1 VH
VL: B1 VL
modifications: here or on the partner: modified amino acid residue 30 (pAMF) according to Example 2, position not stated for this conjugate, linked to PEG4-MMAF
In experiment [11], B6 showed a cell killing IC50, ARD (MM) cells of 18 nM; a cell killing IC50, ARP-1 (MM) cells of 6 nM; a cell killing IC50, BDCM (AML) cells of 3.3 nM; a cell killing IC50, JVM-13 (CLL) cells of 7.8 nM. For the same molecule, in experiment [11], the cell killing IC50, RPMI-6666 (HL) cells amounted to 1.5 nM; the cell killing IC50, SU-DHL-6 (NHL) cells stood at 0.5 nM; the cell killing IC50, SUP-B15 (ALL) cells was 2.5 nM; the cell killing Span, ARD (MM) cells came to 20%. In [11], this molecule had a cell killing Span, ARP-1 (MM) cells of 71%; a cell killing Span, BDCM (AML) cells of 78%; a cell killing Span, JVM-13 (CLL) cells of 47%; a cell killing Span, RPMI-6666 (HL) cells of 80%. In experiment [11], this molecule registered a cell killing Span, SU-DHL-6 (NHL) cells of 98% and a cell killing Span, SUP-B15 (ALL) cells of 58%.

Broadly, the IC50 is the concentration that inhibits the measured activity by half.
